Measurements from patent US20120004117A1 (FORERUNNER PHARMA RESEARCH, published 2012).

T1: N-terminally HA-tagged chimeric TM4SF20 version 1 expressed on CHO DG44 cells (chimeric TM4SF20 ver.1_CHO) (human TM4SF20 with the first loop …, UniProt Q53R12 2-229)
T1 construct: also called chimeric TM4SF20 ver.1_ntHA
T1 chain: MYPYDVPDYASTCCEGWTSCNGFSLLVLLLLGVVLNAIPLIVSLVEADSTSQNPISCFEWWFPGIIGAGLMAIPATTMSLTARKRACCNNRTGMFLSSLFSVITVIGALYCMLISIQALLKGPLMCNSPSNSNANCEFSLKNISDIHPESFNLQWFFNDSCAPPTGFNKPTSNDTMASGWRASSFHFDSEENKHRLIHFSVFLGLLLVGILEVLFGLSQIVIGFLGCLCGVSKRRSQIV

T2: C-terminally HA-tagged TM4SF20 expressed on CHO DG44 cells (TM4SF20_CHO) (human, UniProt Q53R12 1-229)
T2 construct: also called TM4SF20_ctHA; pCOS2_TM4SF20_ctHA product
T2 sequence: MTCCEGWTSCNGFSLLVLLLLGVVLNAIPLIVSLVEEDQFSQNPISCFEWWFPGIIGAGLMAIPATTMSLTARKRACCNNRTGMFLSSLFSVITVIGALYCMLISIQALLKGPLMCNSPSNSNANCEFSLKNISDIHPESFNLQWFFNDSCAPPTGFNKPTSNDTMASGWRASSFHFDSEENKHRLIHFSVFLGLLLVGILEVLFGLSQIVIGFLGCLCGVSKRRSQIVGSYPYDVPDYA

T3: N-terminally HA-tagged mouse TM4SF20 expressed on CHO DG44 cells (mTM4SF20_CHO) (mouse, UniProt Q9CQY8 2-226)
T3 construct: also called mTM4SF20_ntHA; pCOS2_mTM4SF20_ntHA product
T3 chain: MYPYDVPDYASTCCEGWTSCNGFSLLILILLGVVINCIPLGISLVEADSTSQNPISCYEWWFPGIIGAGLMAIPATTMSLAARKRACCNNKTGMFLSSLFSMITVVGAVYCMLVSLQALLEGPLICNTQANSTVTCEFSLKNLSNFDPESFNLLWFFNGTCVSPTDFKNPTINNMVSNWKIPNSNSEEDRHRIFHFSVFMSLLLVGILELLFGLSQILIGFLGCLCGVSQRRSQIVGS

T4: GST_TM4SF20_C2 (human)
T4 construct: Tested as whole E. coli lysate, denatured, in western blotting; not shown: glutathione S-transferase (GST) tag encoded by the vector pGEX-6P-1 (GE Healthcare), upstream of the BamHI site
T4 chain: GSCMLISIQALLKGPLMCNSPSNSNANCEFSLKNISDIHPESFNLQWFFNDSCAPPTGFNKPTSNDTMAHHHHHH

T5: GST_TM4SF20_C3 (human)
T5 construct: Tested as whole E. coli lysate, denatured, in western blotting; not shown: glutathione S-transferase (GST) tag encoded by the vector pGEX-6P-1 (GE Healthcare), upstream of the BamHI site
T5 chain: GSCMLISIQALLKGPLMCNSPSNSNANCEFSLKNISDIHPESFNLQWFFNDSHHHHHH

T6: human TM4SF20 (Transmembrane 4 L6 family member 20), endogenous (human, UniProt Q53R12 1-229)
T6 construct: Untagged native protein as on A549 lung adenocarcinoma cells and in clinical stomach cancer sections; also called TM4SF20 protein
T6 sequence: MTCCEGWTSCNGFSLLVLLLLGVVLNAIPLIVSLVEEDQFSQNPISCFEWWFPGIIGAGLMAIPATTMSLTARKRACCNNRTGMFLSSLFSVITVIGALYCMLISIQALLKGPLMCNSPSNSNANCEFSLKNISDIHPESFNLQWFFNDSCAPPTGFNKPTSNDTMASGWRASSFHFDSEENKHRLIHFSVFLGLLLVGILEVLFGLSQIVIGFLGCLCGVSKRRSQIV

T7: N-terminally HA-tagged TM4SF20 expressed on Ba/F3 cells (TM4SF20_Ba/F3) (human, UniProt Q53R12 2-229)
T7 construct: Four-transmembrane protein on the cell membrane; also called TM4SF20_ntHA; pMCDN2_TM4SF20_ntHA product
T7 sequence: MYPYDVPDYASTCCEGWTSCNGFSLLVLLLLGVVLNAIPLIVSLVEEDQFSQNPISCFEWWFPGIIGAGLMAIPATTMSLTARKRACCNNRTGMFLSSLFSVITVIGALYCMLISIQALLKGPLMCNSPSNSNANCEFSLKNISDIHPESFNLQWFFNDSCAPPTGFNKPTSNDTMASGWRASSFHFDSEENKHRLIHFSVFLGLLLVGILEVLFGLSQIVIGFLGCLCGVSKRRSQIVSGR

T8: N-terminally HA-tagged chimeric TM4SF20 version 2 expressed on CHO DG44 cells (chimeric TM4SF20 ver.2_CHO) (human TM4SF20 with the second loop …)
T8 construct: also called chimeric TM4SF20 ver.2_ntHA
T8 chain: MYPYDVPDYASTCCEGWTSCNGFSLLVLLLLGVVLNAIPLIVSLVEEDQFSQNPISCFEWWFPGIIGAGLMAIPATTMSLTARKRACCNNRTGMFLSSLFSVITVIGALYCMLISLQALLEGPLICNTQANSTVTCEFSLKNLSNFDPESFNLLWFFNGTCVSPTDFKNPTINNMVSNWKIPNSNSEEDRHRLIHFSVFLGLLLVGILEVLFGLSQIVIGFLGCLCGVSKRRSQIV


What was measured:
[1] = target: T1, N-terminally HA-tagged chimeric TM4SF20 …; assay: flow cytometry, hybridoma culture supernatant on chimeric TM4SF20 ver.1_CHO cells
Description: (§1) Next, 5×10⁴ cells suspended in FACS buffer were dispensed to a U-bottom 96-well plate. The anti-TM4SF20 antibody (hybridoma culture supernatant) or the HAT medium as a negative control was added thereto at a concentration of 10 μg/mL. After reaction on ice for 1 hour, the cells were washed with FACS buffer. Next, an FITC-labeled anti-mouse antibody (Goat F(ab′)₂ Fragment Anti-mouse IgG (H+L)-FITC, Beckman Coulter, Inc.) was added thereto as a secondary antibody and reacted on ice for 1 hour. The cells were washed with FACS buffer, then suspended in FACS buffer supplemented with 10 μg/mL propidium iodide (PI, Sigma-Aldrich Corp.), and assayed using a flow cytometer. The assay data was analyzed as to PI-negative cell populations using CELLQuest software. As a result, all the clones bound to TM4SF20_CHO but to neither […] nor DG44 cells (FIG. 4).
(§2) Next, the binding of the anti-TM4SF20 antibody (hybridoma culture supernatant) was confirmed by flow cytometry in the same way as in Example 3. As a result, all the clones bound to chimeric TM4SF20 ver.1_CHO but to neither chimeric TM4SF20 ver.2_CHO nor DG44 cells (FIG. 6).

[2] = target: T2, C-terminally HA-tagged TM4SF20 …; assay: flow cytometry, hybridoma culture supernatant at 10 µg/mL on TM4SF20_CHO cells
Description: as §1

[3] = target: T3, N-terminally HA-tagged mouse TM4SF20 …; assay: flow cytometry, hybridoma culture supernatant on mTM4SF20_CHO cells
Description: as §1

GST_TM4SF20_C2 = target: T4, GST_TM4SF20_C2; assay: western blotting of E. coli whole cell lysate, purified antibody
Description: (§3) Each construct was expressed using BL21 (DE3) Competent Cells (Takara Bio Inc.). The whole cell lysate was electrophoresed by SDS-PAGE and then transferred to a PVDF membrane (Immobilon-P, Millipore Corp.) for western blotting. The construct was detected using the anti-TM4SF20 antibody (purified antibody) at a concentration of 5 μg/mL, a 3000 fold-diluted secondary antibody (HRP-anti mIgG, GE Healthcare Bio-Sciences Corp.), and ECL Western Blotting Detection Reagents (GE Healthcare Bio-Sciences Corp). The expression of each construct was confirmed using an anti-GST antibody (GE Healthcare Bio-Sciences Corp.) and an anti-His antibody (Santa Cruz Biotechnology, Inc.). Secondary antibodies used were a HRP-labeled anti-goat antibody (Invitrogen Corp.) and a HRP-labeled anti-rabbit antibody (GE Healthcare Bio-Sciences Corp.), respectively.

GST_TM4SF20_C3 = target: T5, GST_TM4SF20_C3; assay: as above
Description: as §3

[4] = target: T6, human TM4SF20 (Transmembrane 4 L6 …); assay: flow cytometry, purified antibody at 10 µg/mL on A549 cells
Description: as §1
Each anti-TM4SF20 antibody prepared in Example 2 was used to evaluate TM4SF20 expression on the cell membrane of a human cancer cell line by flow cytometry. A primary antibody used was the anti-TM4SF20 antibody (purified antibody) or a negative control antibody (mIgG2a, BD Biosciences Pharmingen). […] The flow cytometry was conducted in the same way as in Example 3 except for the primary antibody used at a concentration of 10 μg/mL. As a result, the expression of TM4SF20 was confirmed on the cell membrane of the A549 cells (FIG. 9)

[5] = target: T7, N-terminally HA-tagged TM4SF20 …; assay: flow cytometry screening of hybridoma supernatants on TM4SF20_Ba/F3 against parental Ba/F3 cells
[6] = target: T8, N-terminally HA-tagged chimeric TM4SF20 …; assay: flow cytometry, hybridoma culture supernatant on chimeric TM4SF20 ver.2_CHO cells
Description: as §1, §2

Row | Binder | binding result [1] | binding result [2] | binding result [3] | binding result (GST_TM4SF20_C2) | binding result (GST_TM4SF20_C3) | binding result [4] | binding result [5] | binding result [6]
1 | anti-TM4SF20 antibody B11 (antibody, mouse IgG1, V domains shown, also called clone B11) VH: EVQLQQSGPELVKPGASVKMSCKASGYRFTNYVMHWVKQKPGQGLEWIGYINPYNAGTKYNEKFKGKATLTSDKSSSTAYMELSSLTSEDSAVYYCARGAGWSLRFADWGQGTLVTVSA VL: DILMTQSPSSMSVSLGDTVSITCHASQGISSNIGWLQQKPGKSFKGLIYLATNLEDGVPSRFSGSGSGADYSLTITSLESEDFAVYYCVQYSQFPRTFGGGTKLEIK | binds | binds | no binding (tested: 10 µg/mL) | no binding (tested: 5 µg/mL) | no binding (tested: 5 µg/mL) | binds | binds | no binding
2 | anti-TM4SF20 antibody B8 (antibody, mouse IgG2b, V domains shown, also called clone B8) VH: RVQLKESGPDLVQPSQTLSLTCTVSGFSLTNYGVHWIRQPPGKGLEWVGTVGWDDKKYYNSVLKSRLSINRDTSKNQVFLKLSSLQTEDTAMYYCTPYYDGSPYVMDYWGQGTSVTVSS VL: DIVMSQSPSSLAVSAGEKVTMTCKSSQSLFDSGTRKNYLAWYQQKPGQSPKLLIYWASTRESGVPDRFTGSGSGTDFTLTISSVQAEDLAVYYCKQSYYLLTFGAGTKLELK |  |  | no binding (tested: 10 µg/mL) | no binding (tested: 5 µg/mL) | no binding (tested: 5 µg/mL) |  |  | no binding
3 | anti-TM4SF20 antibody B15 (antibody, mouse IgG2a, V domains shown, also called clone B15) VH: RVQLKESGPDLVQPSQTLSLTCTVSGFSLTNYGVHWIRQPPGKGLEWVGTVGWDDKKYYNSVLKSRLSINRDTSKNQVFLKLSSLQTEDTAMYYCTPYYDGSPYVMDYWGQGTSVTVSS VL: DIVMSQSPSSLAVSAGEKVTMTCKSSQSLFDSGTRKNYLAWYQQKPGQSPKLLIYWASTRESGVPDRFTGSGSGTDFTLTISSVQAEDLAVYYCKQSYYLLTFGAGTKLELK |  |  | no binding (tested: 10 µg/mL) | no binding (tested: 5 µg/mL) | no binding (tested: 5 µg/mL) |  |  | no binding
4 | anti-TM4SF20 antibody C7 (antibody, mouse IgG1, V domains shown, also called clone C7) VH: QVQLKESGPDLVQPSQTLSLTCTVSGFSLSSYGVHWVRQPPGKGLEWVGTMGWDDKKYYNSALNSRLSLSRDTSKNQVFLKLSSLQTEDTAMYYCTRDYYSDGSFAYWGQGTLVTVSA VL: DVLMTQTPLSLPVSLGDQASISCKSSQSIVHSDGNTYLQWYLQKPGQSPKLLIYKVSNRFSGVPDRFSGSGSGTDFTLKISRVEAEDLGIYYCFQGSHVPPTFGTGTKLEIK |  |  | no binding (tested: 10 µg/mL) | no binding (tested: 5 µg/mL) | no binding (tested: 5 µg/mL) |  |  | no binding
5 | anti-TM4SF20 antibody C9 (antibody, mouse IgG1, V domains shown, also called clone C9) VH: QVQLKESGPDLVQPSQTLSLTCTVSGFSLSSYGVHWVRQPPGKGLEWVGTMGWDDKKYYNSALNSRLSLSRDTSKNQVFLKLSSLQTEDTAMYYCTRDYYSDGSFAYWGQGTLVTVSA VL: DVLMTQTPLSLPVSLGDQASISCKSSQSIVHSDGNTYLQWYLQKPGQSPKLLIYKVSNRFSGVPDRFSGSGSGTDFTLKISRVEAEDLGIYYCFQGSHVPPTFGTGTKLEIK |  |  | no binding (tested: 10 µg/mL) | no binding (tested: 5 µg/mL) | no binding (tested: 5 µg/mL) |  |  | no binding
6 | anti-TM4SF20 antibody B12 (antibody, mouse IgG1, V domains shown, also called clone B12) VH: QVQLKESGPDLVQPSQTLSLTCTVSGFSLTNYGVHWVRQPPGKGLEWVGTMGWDDKKYYNSALKSRLSISRDTSKNQVFLKLSSLQTEDTAMYYCTRNVNFDYWGQGTTLTVSS VL: not shown | binds | binds | no binding (tested: 10 µg/mL) | no binding (tested: 5 µg/mL) | no binding (tested: 5 µg/mL) | binds | binds | no binding
